Our source for the activity values is patent publication US6514698.

Data set [1] relates to M.CviRI DNA methyltransferase.
Data set [2] deals with T1, M.EcoRI DNA methyltransferase (UniProt P00472).
T1 sequence: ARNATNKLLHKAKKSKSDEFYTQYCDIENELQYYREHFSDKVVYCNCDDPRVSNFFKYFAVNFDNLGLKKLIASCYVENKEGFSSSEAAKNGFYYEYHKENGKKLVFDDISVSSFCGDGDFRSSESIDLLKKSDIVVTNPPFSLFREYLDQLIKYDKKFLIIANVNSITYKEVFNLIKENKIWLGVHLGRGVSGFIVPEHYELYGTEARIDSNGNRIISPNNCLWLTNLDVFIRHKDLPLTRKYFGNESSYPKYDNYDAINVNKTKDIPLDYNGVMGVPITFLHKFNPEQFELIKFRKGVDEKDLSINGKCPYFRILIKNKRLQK

In data set [3] the target is T2, M.BamHI DNA methyltransferase (UniProt P23941).
T2 sequence: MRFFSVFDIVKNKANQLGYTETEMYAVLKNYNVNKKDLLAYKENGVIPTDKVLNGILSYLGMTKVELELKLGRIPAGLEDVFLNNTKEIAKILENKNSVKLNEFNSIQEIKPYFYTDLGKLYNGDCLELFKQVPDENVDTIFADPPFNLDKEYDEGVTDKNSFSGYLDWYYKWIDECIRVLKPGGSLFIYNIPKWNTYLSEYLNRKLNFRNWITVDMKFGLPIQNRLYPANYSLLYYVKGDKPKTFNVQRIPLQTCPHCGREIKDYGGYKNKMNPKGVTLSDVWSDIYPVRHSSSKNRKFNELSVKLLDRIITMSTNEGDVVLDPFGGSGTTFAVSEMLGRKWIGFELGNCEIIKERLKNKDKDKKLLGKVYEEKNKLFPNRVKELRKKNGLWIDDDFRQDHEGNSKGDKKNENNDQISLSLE

In data set [4] the target is M.HaeIII DNA methyltransferase (UniProt P20589). Conditions: background 615.
Where [5] appears, read: 3H-methyl-SAM, 23 C, 5 mM EDTA, no MTase 574.

Read-outs that look alike come from different tables or passages of the source.

Turning to “GGTGGGAGAAGAAGATAAAAAGTAACATCTTTCTGCCTTCCAGATGATTCGAAGAATTTCTCCATCCAAGTGCGGCAGGTGGAGGATTGCCCTGTGGACATCTACTACTTGATGGACCTGTCTTACTCCATGCCGGATGATCTGTGGAGCATCCAGAACCTGGGTACCAAGCTGGCCACCCAGATGCGAAAGCTCACCAGTAACCTGCGGATTGGCTTCGGGGCATTTGTGGACAAGCCTGTGTCACCATACATGTATATCTCCCCACCAGAGGCCCTCGAAAACCCCTGCTATGAGTAAGTCCCTCCTCCAGACGCCAGGACAGCATCCTTTGCCCAGGAAGGTCCAAGTCCTGGTTCCTA (double strand) [GPIIIa Yuka/a 362 bp amplicon]”, the activity in data set [1] (background 472) worked out at 506 cpm.
Turning to “GGTGGGAGAAGAAGATAAAAAGTAACATCTTTCTGCCTTCCAGATGATTCGAAGAATTTCTCCATCCAAGTGCGGCAGGTGGAGGATTGCCCTGTGGACATCTACTACTTGATGGACCTGTCTTACTCCATGCCGGATGATCTGTGGAGCATCCAGAACCTGGGTACCAAGCTGGCCACCCAGATGCGAAAGCTCACCAGTAACCTGCGGATTGGCTTCGGGGCATTTGTGGACAAGCCTGTGTCACCATACATGTATATCTCCCCACCAGAGGCCCTCGAAAACCCCTGCTATGAGTAAGTCCCTCCTCCAGACGCCAGGACAGCATCCTTTGCCCAGGAAGGTCCAAGTCCTGGTTCCTA (double strand) [GPIIIa Yukb/b 362 bp amplicon]”, the activity in data set [1] (3H-methyl-SAM, 23 C, 5 mM EDTA, background 501) was found to be 12200 cpm.
For the substance “pBluescript 191 bp amplicon predigested with BamHI”, the activity in data set [2] (background 661) turned out to be 32800 cpm; in data set [3] (site cleaved, background 661), 999 cpm.
As to “pBluescript 191 bp amplicon predigested with EcoRI”, the activity in data set [2] (site cleaved, background 750) was 770 cpm; in data set [3] (background 750, nearby frayed EcoRI end interferes), 1310 cpm.
On to “pBluescript SK+ polylinker 191 bp amplicon”, for which the activity amounted to 85000 cpm in data set [2] (setting [5]) and 69700 cpm in data set [3] (setting [5]).
For pUC19, the activity in data set [4] is 26200 cpm; in data set [1] (background 615), 118000 cpm.
